Data reported in the DeepSol protein solubility set.

Assay: soluble on expression in E. coli; label from the status in PepcDB or PDB records

Sequence	soluble on expression in E. coli
GPLGSGMRFMPVQSNFVINHGKLTNQLLQAVAKQTRNGDTQQWFQQEQTTYISRTVNRTLDDYCRSNNSVISKETKGHIFRAVENALQQPLDMNGAQSSIGHFLQSNKYFNQKVDEQCGKRVDPITRFNTQTKMIEQVSQEIFERNFSGFKVSEIKAITQNAILEHVQDTRL	soluble
MPTASPIYDVVVVGAGISGLIATQLLDRAGLNIKCFEACSRVGGRAVSVQQSDLFLDLGATWFWLNEPLVQQLVNNLGLGTFPQAIEGDALFETLVDAPSRLRGNPIDAASGRFQAGASSLALGLAAQLKPGVLELGDPVHSLSEEDGEIVVKSSKQIVRAKHVIIAVPPALAAELIGFTLDLPADVRKAAHPQHIAVMNWAKEKYTLPTQAASAGGFGHELFQQPLGHGRIHWASTEVATEFGGHLEGAVRAGIQAALQTGFNLKSLEHHHHHH	soluble
MVSTHSSQYITDFTPVPAEPGKSPLALLAKTCETIGLPEGSSKKNGASSSSSPQGKKDEKNHILHHQHHQQQQQSKQKSSPRSTPQSKEPTLTFPGLPKPSFPMGMPGMMQGFPFFNPMMTAYGCFPGAFPMSQGFMGAQRLPCPFAMMRQPCANPACVQCPSSSSNAAKNGQMTAEMMSQFAAHPLFSMYAGMMPGVPTSSYQALLAASAAASTSAGPTDYSNVASTSKASPQPKPTAQKSQKSAKFPCNWVDSDVPCGKVFDEENELASHVKKMHAPSPSSSASSEQSTSTGKASRSSTTTPHRFNPYGKPVAPAPPTMQQMGMNMAMNPLVLPFSLQAMYSNRLMSTVAHQ	not soluble
MAHHHHHHMNKDTICAWCFDVLKYELKNEKFDKVPPLIQSLHNDGFKIPFFVKWMKLNDVKDMGSYNYDAYELNGCIGCLGETDIMELRYYALESSLNDTRFYPITLKDFPFLIVTITYLFNFEKCAHVYDWVIGKHGIKISFVANKRRYSSTFLPEVASQHNFDHQTTVKKLIRKANYRGEINDELLENIEVERYEGVSCSLTHVDYERV	not soluble
VANKIKLGHVHLSGCTGCLVSTADNNLGFIKILDNYADLVYSLTLADVRHVPEMDVALVEGSVCIQDHESVEEIRETREKAKIVVALGSCACYGNITRFSRGGQHNQPQHESFLPIGDLIDVDVYIPGCPPSPELIRNVAVMAYMLLEGDEDQKALAGRYLKPLMD	not soluble
SEKANALFETIFMENIMASPIAQTYMGIKQDYDKWDEIGDEADALELARTQKQLAEINQLDASKLDPQTRLSLALLTQNLNNDIKDYQWRYHTYPVNQMRGGHSMIASFLINQHQITDVSDAKAYISRLNGVPKRLTQLQKALEVRAEKGIIAPKFVFGYVISDSQNILKGAPFDKNEDSALLADFRKKVKALSIPETEKAPLIAEAEKALTSQVAPAYKALISYIKTLEAKADTRDGVWKLPDGDAFYNNALARTTTTDMTADEIHQLGLAEVERIHNEMRAIMKKVHFNGTLQAFFAFMRNNPQFYYPNTPEGKAAYLADATQLIDNMHSRLDEVFKVKPKAAMIVKQVESFREKSAGKAFYEQPAPDGSRPGSYYANLYDMKAMPKYQMEALAYHEGIPGHHMQIAISQELKDIPKFRKFGGYTAYIEGWGLYSESFPKEMGLYADPYSDFGRLAMELWRACRLVVDTGIHAKKWTREQGIAYYVDNTPNAKSDAVKMVERHIVMPSQATAYKVGMIKLLELRHKAEKQLGDKFDIRDFHTLILANGALPLDVLEEHVNQWIASVNK	not soluble
FNRRFILPELREAVRSVSADIVFLQEVHGEHHSHARRVKDWPTISQYEFLADSMWSDFAYGRNAVYPDGDHGNALLSKYPIIQHENLDVSIDGTEQRGLLHCILQVPDHGQVHAVCVHLGLFESHRRQQLKLLAQLMDRLPEGAPVIVAGDFNDWRQRADALLQGTGLHEVFVQRFGAPAKSFPARWPLLRLDRIYVRNATSHRPKVLSSRPWSHLSDHAPLAVEVTL	not soluble
MGSDKIHHHHHHMKEIINLDEMIMLLKTIAESSRLRLLALLYHEDLTVSDFTLVLGQSQSHVLQHLHLLYEAQLVERYQKGRSIYFKLYYGRLGKDIVMAVVSALLEHNRVIAHDLARLKDIKKQYRKQEKKYFLQNVVQWDTLRLFSIADLGVENALREIVGDKPFETMLDISRDTGSVLKLFSGLYTYAVEVVLDSDILHLSVENTTFDLVILHWVLYFLESPEVALHEIAGVLRPHGRLLIVDFVRHEVESSHSYLSHMPFGFSDLQIEQWLKNVGLILEKIICFPPLQNENNERLMVKIWLARDPRLLVDDIKDKKVEFA	not soluble
ITTKRGEKGKVKINVKAGFDWNTPVKVPEYASGYDWARLANEARLGRYDSPIYTPEELEIIRSGLDTDLYPNIDWRDLMLKSGAPRYYANISFSGGSDNVRYYVSGQYTSEQGRYKTFSSENKYNTNTTYERYNYRANVDMNITKTTVLKVSVGGWLVNRTTPTRSTGDIWEDFAKFTPLSTPRKWSTGQWPRVDGQDTPEYHMTQRGYHTKWESKVETSVKLEQDLKFITPGLKFEGVFAFDTYNENIIKREKKEEVWEAQKYRDENGKLILKRVVNRSPMNQNKEVRGDKRYYFQASLDYNRLFAHAHRVGVFGMVYQEEKTDVNFDSSDLIGSIPRRNLAYSGRFTYAYKDKYLAEFNWGCTGSENFEHGKQFGFFPAVSAGYVISEEAFMKKALPWIDQFKIRASYGEVGNDVLDGRRFPYVSLIDTDDGGSYSFGEFGTNRVQAYRIRTLGTPNLTWEIAKKYDVGVDFSFFNGKISGALDWFLDKRDDIFMQRKHMPLTTGLADQTPMANVGKMKSYGWEGNIGFTQSIGQVNLQLRANFTYQTTDIIDKDEAANELWYKMDKGFQLNQSRGLIALGLFKDQDEIDRSPKQTSNRPILPGDIKYKDVNGDGVINDDDIVPLGYREVPGLQYGVGLSANWRNWNLSVLFQGTGK	not soluble
MSLKQINIQKFITAKRIAKYSSLESYKLNILESQKYYSSLSILEVSLRNAIDFYFTERYGESWTDLLDIFKYKEISKIEEAKNFLKLKQEECTKDKIVAELNFGFCTSLFSKTYEEQMRKNNLIKIFNNLPKNKQINRAYLSRKLNNIRNFRNRIFHYEKIINKPEYLNIENDINEILEFLDKEILGFSIGLNIEGHHHHHH	soluble
MPDAVVIGAGPNGLVAANLLADAGWSVTVLEEQDEPGGAVRHDNGVDPDFTTDLFSSFYPLAAASPVLAGLHLEREGLRWSHAPRVLAHPLSDGRCAVLGRDLDDTAASLDTFADGDGAAWRELHDVWERLRPDLLDALFTPFPPVRAGARLAARLRAGGGLRLARSLVLPVRRLGEEEFRGEGGRLLLAGNALHADLAPEAAGSGGFGWLMSMLGQTYGFPVPVGGSGALTSALTQRLHRRGGVLRCGQRVSEVVVRQGRAVAVRTAGGETVPARRAVLADVSVPALYGTLVGSAHLPAQVLADLRRFQWDFATFKVDWALDGPVPWQADAASAAGTVHLADGVDELTRFAAQIAMRQVPDRPFALFGQMTTADATRSPEGTEAAWAYTHVPHRIAGDAGDAGLAGTWDAREQELMADRVERQVERFAPGFRSLIRARRILAPPTLQSLNANLYGGAINGGTTALHQQLVFRPIPGTGRPETPVANLFLASAGAHPGGGVHGAPGANAARAALRKHLPSGLTRAQRLLTRRNRKGERDTGFGGLEHHHHHH	not soluble
HHHHHHGSQEAPHFKPGEDPRQPHQEWKLIENMSDEFEGKKIDEKKWQISGQGWIGRAPGLFLAENISLNNGSLQITTTMLPEPIVKNNKTYTHGGGYVGSRNGMTYGYYECEMKANKTFMSSTFWLINEGKDRLGCDKRTTELDIQESVGQITNDADWMKYFDQTMNSNTHSRNIPEGCEYEKGSSKGKAELGGKAYEDFHVYGVWWKSKDEIIFFLDGKMQSKVTPPADFDIEMYLRMVVETYDWNPVPKDGGMTGSKEDRTTTYNWVRSWQLVDSKN	soluble
MTQFDKQYNSIIKDIINNGISDEEFDVRTKWDSDGTPAHTLSVISKQMRFDNSEVPILTTKKVAWKTAIKELLWIWQLKSNDVNDLNMMGVHIWDQWKQEDGTIGHAYGFQLGKKNRSLNGEKVDQVDYLLHQLKNNPSSRRHITMLWNPDELDAMALTPCVYETQWYVKHGKLHLEVRARSNDMALGNPFNVFQYNVLQRMIAQVTGYELGEYIFNIGDCHVYTRHIDNLKIQMEREQFEAPELWINPEVKDFYDFTIDDFKLINYKHGDKLLFEVAV	soluble
SPRKESPLRTAVDAAALTTSDIARQLEVKVQRMNTAHEREANAISSFQQAYGIASAHLDRLLLRIPELPLPEIDDRDVDGGRVRGTFASLQRHHQALDDAISAMHQASEKVYTIPGKQATQEQDPALAQLLSVEKRRRSLGHALETLAGRGVEAGTATGLELNRVSSQVNDLVARRDALLRQRESGVQEGGLDSEELEMELQLTTSVLQRLRADLLGERQAMEATAKRLDQASRAALEGERSFSDAVRDRAWGELDNV	not soluble
SLGWFKTCSKQEDNDVCVVQNVVLAQNGQMITAVGLITVEGKVNRKLLQVSVPTARLIPPGVMMQIDGGKGQKLDYAVCLPDKCTAEVPLTDAMIASLKKGSEVVFTSINFRRAPNPIKIALSGFTGAYDGAAITQSQLAE	not soluble
MSLAEKICITEIDKLSQKLLRIETELNANIPTTLWISDLHGEGDRFKSILRGRFGMLYQTCKEGLPATFTPEKIQYLAKIVRKKNYFADSQQQMDRQDVILCFVQILKYKLTNSTNRNREIFLPEFRETIGRLLAGLPVPDPIFEESIISDRLIFHLSYAIRQVLLDRIQVLGDVFDRGSQPDKIIRILSSPAYKEMVDYVFGNHDILWMGAAAGTPSLVAETLRITCRYDHFRLLNRLRFDTSRLAEFAERTYEIKKATGKFKAKTDRGRAMEKALTVIQFKLEEKLINDFPHYGMEKRLWLERLAEMLKTGATEELNDSDFPTIDLENPSKLSKEESEIINDLIEQFRSNKYLKRLLKFFFEEGSTYHISNNFLNIHALVPSTKEGEFEEFMGHKGKDLLDYIQKVIRRTGQNYLYNREQSADDLALFFYLWCGPKSPFFGKHAMKTFERYFLLDKERHAEHSLYWQKNMQSDAFKEKMQEEFGIQRVIFGHTPVNYMQGNKMASEDGVAINVDGGFAAAYYNRGHALVHTPHQLYGIILPTPDELIKAAVRLEPAPLDIEFIDEFPQPLKIKNTIAGKLLQQERDLIMGKIQSYNSEGHHHHHH	soluble
MEGERMNAFPSTMMDEELNLWDFLERAAALFGRKEVVSRLHTGEVHRTTYAEVYQRARRLMGGLRALGVGVGDRVATLGFNHFRHLEAYFAVPGMGAVLHTANPRLSPKEIAYILNHAEDKVLLFDPNLLPLVEAIRGELKTVQHFVVMDEKAPEGYLAYEEALGEEADPVRVPERAACGMAYTTGTTGLPKGVVYSHRALVLHSLAASLVDGTALSEKDVVLPVVPMFHVNAWCLPYAATLVGAKQVLPGPRLDPASLVELFDGEGVTFTAGVPTVWLALADYLESTGHRLKTLRRLVVGGSAAPRSLIARFERMGVEVRQGYGLTETSPVVVQNFVKSHLESLSEEEKLTLKAKTGLPIPLVRLRVADEEGRPVPKDGKALGEVQLKGPWITGGYYGNEEATRSALTPDGFFRTGDIAVWDEEGYVEIKDRLKDLIKSGGEWISSVDLENALMGHPKVKEAAVVAIPHPKWQERPLAVVVPRGEKPTPEELNEHLLKAGFAKWQLPDAYVFAEEIPRTSAGKFLKRALREQYKNYYGGA	soluble
